Laboratory results from the supplement of paper PMC12764529.
± gives the half width of the 95% confidence interval.

How the values were obtained:
[1] = folding stability dG unfold from chymotrypsin proteolysis; higher = more stable
Summary of the method: (§1)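 Only designs with AlphaFold2 dimer inter-PAE above 15 were retained; each was a mini-protein under 80 residues with no cysteine, in a PA-tagged cDNA display construct. After digestion with trypsin and chymotrypsin and sequencing, K50 was inferred by Bayesian fitting of counts, and unfolding free energy was derived per protease or combined against a sequence-predicted unfolded-state K50 and a shared folded-state K50.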

[2] = folding stability dG unfold from trypsin proteolysis; higher = more stable
Summary of the method: as §1

[3] = folding stability dG unfold (combined trypsin and chymotrypsin); higher = more stable
Summary of the method: as §1

Row | Sequence | folding stability dG unfold [1] [kcal/mol] | folding stability dG unfold [2] [kcal/mol] | folding stability dG unfold [3] [kcal/mol]
1 | SALPPEVVRKLALDALRALYPDEPFVPVSMEVDPETGEVTVLVARPGPDDSLRLVRRTFRVLDDGRVLGSAG [r14_183_TrMRF] | 3.07 ± 0.071 | 2.8 ± 0.067 | 2.98 ± 0.062
2 | SALPPGAPPKPERLVLTLTVSEEEVKKGDLEKVRRLVEELVEALREAGFEVKEVEVVEEDGKLTVRIVLDSA [r9_75_TrROS_Hall] | 2.68 ± 0.17 | 3.04 ± 0.26 | 2.92 ± 0.36
3 | SALPYEVEKTSETFLPEEGLTVTEYKITLPDGSELYRRETFDPKTGVRTVTVYDPNGKKLETRTFTVPPSAG [r14_759_JUSTAS] | 2.49 ± 0.048 | 2.19 ± 0.038 | 2.4 ± 0.046
4 | SALTLEIELEFELEDGYRVTVRARLEFDPETNELTIEVEVRIEPLPPPPPPPETVLVKDENGNWHPLEDLSA [r9_898_TrROS_Hall] | 3.44 ± 0.16 | 3.22 ± 0.14 | 3.27 ± 0.15
5 | SALVPIKGKYPVYEMRPEKDPNGNMKPEMRPVKVPIEFPFVVIDPENGKWVPADDIDPEDGRLVAPGLISAG [r14_122_TrROS] | -0.25 ± 0.045 | 1.14 ± 0.051 | 0.598 ± 0.064
6 | SAMDFKAEKVEILKVEKLKDGTVKITVKVEVGKYVLNAEIPYGKDGKIEKIEAEIDLENNFMTYKVTVGSAG [r14_189_TrMRF] | 2.24 ± 0.13 | 1.58 ± 0.19 | 1.97 ± 0.33
7 | SAMEALEEAGFEVVEVEEVEERELPDGKRLVRLRITVRRDGKLVELEIVVPEENEEEALRAALELLREESAG [r14_726_TrROS_Hall] | 4.4 ± 0.099 | 4.49 ± 0.18 | 4.44 ± 0.11
8 | SAMEITETSLDSSTLYTFPGRRITITTTPDSYTITITLPDGTPVTLNFPPTMPLDEVKKKVIETLLASSSAG [r14_618_JUSTAS] | 1.24 ± 0.16 | 0.935 ± 0.05 | 1.19 ± 0.12
9 | SAMEITIEKDENGNIRITLKLDGAEIIEEKEVPPGEKEKTIKIKVDGKVLELTIKDGKIEIKEVSPEDLSAG [r14_403_TrROS_Hall] | 3.55 ± 0.1 | 2.93 ± 0.14 | 3.44 ± 0.13
10 | SAMEVVEERELPDGTTVVTIPDPATGDTVVLVTDPEGKITVYTYPSSTGIPTEEVFPDLSVEEAIARLASAG [r14_760_JUSTAS] | 0.858 ± 0.071 | 0.645 ± 0.046 | 0.775 ± 0.058
11 | SAMIIIRVKSKEELEEAIRRLAEELGIEDATLEQIREALLRAGAKIVSIERDPEREDYVLIVIELPPEPSAG [r14_678_TrROS_Hall] | 4.1 ± 0.084 | 4.01 ± 0.1 | 4.05 ± 0.071
12 | SAMILPKTVPKTITYPGSEEEARAVAEAEAARLKAQGNVTVDITFVKKSPEGGYTIEITITDYAPPELLSAG [r14_413_JUSTAS] | 0.933 ± 0.28 | 0.77 ± 0.12 | 0.861 ± 0.23
13 | SAMITITLPNGTPVNVEVTVTETRASPDGTLTTTDYELTFHPPDGVPRRGKGTVLSDPATGTTTITIIESAG [r14_789_JUSTAS] | 1.45 ± 0.028 | 1.47 ± 0.041 | 1.48 ± 0.042
14 | SAMITVPFTFPAEKAEEILEDPELKELLEKLEKELGAKVVKIEVSPETVPSGSKTTEYVKFTFTIEKKGSAG [r14_819_JUSTAS] | 1.8 ± 0.16 | 1.2 ± 0.032 | 1.55 ± 0.16
15 | SAMKEAKIVSIEFDEETGTVTIEIEVPPGAKLKIRFLDTGEELEVEVKPGETITITVPKEPILIEIELESAG [r14_96_TrROS_Hall] | 4.09 ± 0.24 | 3.43 ± 0.18 | 3.79 ± 0.54
16 | SAMKEGETVRIELVVVVPPGASVEELADALRALFGPDAEIRVEVEEVTVEVDGKTYRVLTVRVEIRLRKSAG [r14_633_TrROS_Hall] | 4.5 ± 0.059 | 3.44 ± 0.05 | 4.18 ± 0.057
17 | SAMKEGQRLLVVKITIYNKNGEKVEELELVVPEEDKEKALEAAKKLAEELAKKLNLEIKIEVEEVPLPPSAG [r14_146_TrROS_Hall] | 4.02 ± 0.078 | 3.14 ± 0.2 | 3.86 ± 0.13
18 | SAMKEMTAEELAKKLEEELRKLFPDVEIKVEIVEVKEDYVVIKVEITVRLKKPDGKEVEFKLELVLKVDSAG [r14_187_TrROS_Hall] | 3.55 ± 0.15 | 3.1 ± 0.41 | 3.4 ± 0.32
19 | SAMKFKITEVKIISVEKKKDGKKTIVIEMKVEKGEEKITIEFDKNGKIKKVSVEKLPDGKTVRVTIEIDSAG [r14_189_TrROS_Hall] | 2.95 ± 0.087 | 1.49 ± 0.28 | 2.52 ± 0.49
20 | SAMKIEPVPDPEHGRTYYTIKFKGAEVQIWENPGQYYISIRPPGNNKQIVIPAPPNDIDDILKELGIKPSAG [r14_4_TrROS] | 1.71 ± 0.16 | 1.06 ± 0.032 | 1.4 ± 0.17
21 | SAMKIKPVPDPVTGKTKYVIDFGDAEVVIYHFPNSYRIEVRKKPDNKTIVIEAKPNEIEEVLKELGLPASAG [r14_4_TrMRF] | 1.85 ± 0.12 | 1.4 ± 0.12 | 1.86 ± 0.16
